Data reported in the supplement of paper PMC9170038.

Tested on: MS2 coat protein
Assay: apparent KD of MS2 coat protein; designed switch direction (-1 OFF switch, 1 ON switch): -1; higher = weaker reporter binding
Summary of the method: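 Designed RNA switches sharing common flanks were transcribed on Illumina chips by stalled E. coli RNA polymerase. They were titrated with SNAP-549-labelled MS2 coat protein, from 0.7 or 1.5 nM doubling to 3 µM, in Tris-HCl pH 7.5 buffer with KCl, MgCl2, BSA, DTT, tRNA and Tween-20. Titrations ran without input, with 200 uM small-molecule ligand, or with an oligonucleotide input. The apparent KD of each design is the median over its clusters, after curve-fitting of normalised cluster fluorescence.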

[1] = Eterna round: R95, input ligand: FMN 200 uM
[2] = Eterna round: R95, input ligand: microRNA oligo, concentration not stated
[3] = Eterna round: R95, input ligand: none
[4] = input ligand: microRNA oligo, concentration not stated

AAUAAAUAAGCAGGAUCCUACAUGAGGAUCACCCAUGUGCUCGUCUUAUAAAGUACUAUCACGAAAGUGAUAGUACA [Mat - Sensor v3 - turn-off var 1 - Eli Mod - D75] (puzzle: Sensor v3, turn-off variant 1)
apparent KD of MS2 coat protein [1]: 115 nM
apparent KD of MS2 coat protein [2]: 103 nM
apparent KD of MS2 coat protein [3]: 145 nM

AUGUGCACGCUGCGGUCCUACAUGAGGAUCACCCAUGUGGUCUGGUGGCGUGGGUCGCCGGACUUGGCUCGUCUUGA [salish99_S_TOV1_R5_029] (Eterna round: R97, puzzle: Sensor, turn-off variant 1)
apparent KD of MS2 coat protein (input ligand: FMN 200 uM): 17.9 nM
apparent KD of MS2 coat protein (input ligand: none): 18.2 nM

AGAUUUGUAGUGAGGAUAUAGGAUGAGUAGUAGUACUAGAAGGCACAUGAGGAUCACCCAUGUAAGUGAAUGAG [Exclusion 4 mod test] (Eterna round: R97, puzzle: Brourd's mod of Exclusion 4)
apparent KD of MS2 coat protein (input ligand: FMN 200 uM): 22.6 nM
apparent KD of MS2 coat protein (input ligand: none): 20.2 nM

AAAUGCAAGCAAAGAUUCUACAUGAGGAUCACCCAUGUGCUCGUCUUAUAAAGUACUAUCACGAAAGUGAUAGUACA [Sensor 3, v1 - 34] (puzzle: Sensor v3, turn-off variant 1)
apparent KD of MS2 coat protein [1]: 18.2 nM
apparent KD of MS2 coat protein [2]: 88.3 nM
apparent KD of MS2 coat protein [3]: 17.6 nM

UCGCAAGCCAUUCCUACUCACAUGAGGAUCACCCAUGUCCUCAGGUUCGUCGUGUCUCUCUGCAAACACUUGCAGAG [Eternabot (L2) Solution 7] (Eterna round: R97, puzzle: Sensor, turn-off variant 1)
apparent KD of MS2 coat protein (input ligand: FMN 200 uM): 145 nM
apparent KD of MS2 coat protein (input ligand: none): 762 nM

AAAAUACAUGAGGAUCACCCAUGUGAGGAUAUGAGCGUCAUUUAUAUAUAUUAGACGCUCAGAAGGCACAUAAA [JR_Ex1_Sub069] (Eterna round: R97, puzzle: Exclusion 1)
apparent KD of MS2 coat protein (input ligand: FMN 200 uM): 214 nM
apparent KD of MS2 coat protein (input ligand: none): 44.3 nM

GUAGAGUAAGGAUAUGUAGAAUAGGAUAGAAUGGUUAGAAUGCAGAAGGUACAUGAGGAUCACCCAUGUAAUGU [Excluse me!!!! 5 - Jieux - Exclusion 4] (puzzle: Exclusion 4)
apparent KD of MS2 coat protein [2]: 21.2 nM

UCGGCGCGAGGAUAUACGUUUGCUCUUUUUCGUUUUUGUGUACAUGAGGAUCACCCAUGUAGAAGGCGCGCCGC [Apr-15 SS2-19] (Eterna round: R96, puzzle: Exclusion 2)
apparent KD of MS2 coat protein (input ligand: FMN 200 uM): 80.9 nM
apparent KD of MS2 coat protein [4]: 17.3 nM
apparent KD of MS2 coat protein (input ligand: none): 31.5 nM

AACUGGACAGGAUAUGUUCUUGAGCACUUGAGGAUCACCCAAGUCAUCAAGAACUCAGGCACAGAAGGGUUUAUGC [salish99_ex5_r4_003] (Eterna round: R97, puzzle: Exclusion 5)
apparent KD of MS2 coat protein (input ligand: FMN 200 uM): 19 nM
apparent KD of MS2 coat protein (input ligand: none): 13.4 nM

UAUCGGGACUGAGGAUAUUCGUUCGAGCACGAAGAAGAAGGUAGUGUCAGGGACAUGAGGAUCACCCAUGUGAUCUCAGUCCCA [JL ViennaUCT Erinle mod 7] (Eterna round: R96, puzzle: Exclusion NG 1)
apparent KD of MS2 coat protein (input ligand: FMN 200 uM): 71.8 nM
apparent KD of MS2 coat protein [4]: 60.4 nM
apparent KD of MS2 coat protein (input ligand: none): 67 nM

UGUCAGAUGGUAGGAUAUCCAUAUCGAGUGACCCUUUCCUAACAUGAGGAUCACCCAUGUCGGUGGGAGAAGGGCCGUAUGGUG [salish99_ExNG02_R04_033] (Eterna round: R96, puzzle: Exclusion NG 2)
apparent KD of MS2 coat protein (input ligand: FMN 200 uM): 11.1 nM
apparent KD of MS2 coat protein [4]: 14.2 nM
apparent KD of MS2 coat protein (input ligand: none): 15.2 nM

GGAUCGAGUGUGAGGAUAUGCUGGUCCUUGGAUCAGCAGAAGGCACAUGAGGAUCACCCAUGUGACUAAGAUCC [Eli bmx4 4.75] (Eterna round: R97, puzzle: Brourd's mod of Exclusion 4)
apparent KD of MS2 coat protein (input ligand: FMN 200 uM): 322 nM
apparent KD of MS2 coat protein (input ligand: none): 29.8 nM

AAAUUGGUAGAGGAUAUCGGACAGGAUUUACUGCGAGAAGGCUGCACAUGAGGAUCACCCAUGUUUUGUUGCGA [EX6 #34] (Eterna round: R97, puzzle: Exclusion 6)
apparent KD of MS2 coat protein (input ligand: FMN 200 uM): 23.9 nM
apparent KD of MS2 coat protein (input ligand: none): 25.7 nM

CCUCUACAUGAGGAUCACCCAUGUCAGGAUAUCGUGUGUUUUUUUUCGGCCGCGCGUGCGAGAAGGGACGUCUU (Eterna round: R96, puzzle: Exclusion 1)
apparent KD of MS2 coat protein (input ligand: FMN 200 uM): 35.2 nM
apparent KD of MS2 coat protein [4]: 26 nM
apparent KD of MS2 coat protein (input ligand: none): 36.2 nM

UGUCAGAUGGUAGGAUAUCCAUAUCGAGUGACCCUUUCAUAACAUGAGGAUCACCCAUGUCGGUGGGAGAAGGGCUGUAUGGUG [salish99_ExNG02_R04_025] (Eterna round: R96, puzzle: Exclusion NG 2)
apparent KD of MS2 coat protein (input ligand: FMN 200 uM): 26.8 nM
apparent KD of MS2 coat protein [4]: 19.1 nM
apparent KD of MS2 coat protein (input ligand: none): 24.6 nM

AGAAGGAAAGUGAGGAUAUGCUCUACCUCGGUAGAGCAGAAGGCACAUGAGGAUCACCCAUGUGACUCCUCAUU [Omei Ex4B B26] (Eterna round: R97, puzzle: Brourd's mod of Exclusion 4)
apparent KD of MS2 coat protein (input ligand: FMN 200 uM): 29.2 nM
apparent KD of MS2 coat protein (input ligand: none): 19.5 nM

GUGGGUUACAUGAGGAUCACCCAUGUAGAGUGGGAAGAGAGAUAGGAUAUGAUGUGAGAAUUAUAUCAGAAGGAUCGAGACUCG [AK ExNG3-2.4] (Eterna round: R96, puzzle: Exclusion NG 3)
apparent KD of MS2 coat protein (input ligand: FMN 200 uM): 268 nM
apparent KD of MS2 coat protein [4]: 136 nM
apparent KD of MS2 coat protein (input ligand: none): 214 nM

CUUAAGGCAGGAUAUGCUUUUUGUGACAUGAGGAUCACCCAUGUGAUGCAGUUUGGGUUUGCAGAAGGGCCUGAGU [JR_E5_Sub034] (puzzle: Exclusion 5)
apparent KD of MS2 coat protein [2]: 82.6 nM

UUGGCAGGUUUUUUGUUUGACAUGAGGAUCACCCAUGUUGCGUGGGUUGUGGGUGGGCGGUGUUUAUUUAUGGUUCU [-16.5, -38.6 kcal, A 12%] (Eterna round: R97, puzzle: Sensor, turn-off variant 1)
apparent KD of MS2 coat protein (input ligand: FMN 200 uM): 43.1 nM
apparent KD of MS2 coat protein (input ligand: none): 48.4 nM

UUCCUCGUUGUGAGGAUAUCGUCCGUGUUUUGUUACGAGAAGGCACAUGAGGAUCACCCAUGUUUUUUGUUUUU [JR_BMOE4_Sub075] (puzzle: Brourd's mod of Exclusion 4)
apparent KD of MS2 coat protein [2]: 40 nM

CUUAAUUGUCAGAUGGGUGACAUGAGGAUCACCCAUGUCACAAGCUUUUUGUUCGUCUUAUAAUUAACCCAUCUGAC [Stov1/11-B3] (Eterna round: R97, puzzle: Sensor, turn-off variant 1)
apparent KD of MS2 coat protein (input ligand: FMN 200 uM): 14.5 nM
apparent KD of MS2 coat protein (input ligand: none): 12.3 nM

CCUGCACAUGAGGAUCACCCAUGUUAGGAUAUCUCGCCGCCUAAACGAAUGGUGGCCCAGAGAAGGAACAGGGC [Riatbege] (puzzle: Exclusion 1)
apparent KD of MS2 coat protein [2]: 26.5 nM

CAUACUCAAGUCAGGAUAUAGUCUCGGAUACGGAACUAGAAGGGACAUGAGGAUCACCCAUGUAGAGAGUAAAG [EX-4 Malc #27] (puzzle: Brourd's mod of Exclusion 4)
apparent KD of MS2 coat protein [1]: 63.2 nM
apparent KD of MS2 coat protein [2]: 37.8 nM
apparent KD of MS2 coat protein [3]: 52.2 nM

GGUGUGAGGCAGGAUAUGCAAUAAGUAAGUAAUGCAGAAGGGUCUACAUGAGGAUCACCCAUGUGUGCGGUAGA [Ex6 #2] (Eterna round: R97, puzzle: Exclusion 6)
apparent KD of MS2 coat protein (input ligand: FMN 200 uM): 202 nM
apparent KD of MS2 coat protein (input ligand: none): 109 nM

UUUUUAUAAGGAUAUAUGUGGAUAAUUUUUAUAUGAAAAUUACAUGAGGAUCACCCAUGUAGAAGGUAUGGAGG [-13.9, -11.8 kcal, 35% A] (Eterna round: R97, puzzle: Exclusion 2)
apparent KD of MS2 coat protein (input ligand: FMN 200 uM): 24 nM
apparent KD of MS2 coat protein (input ligand: none): 39.2 nM

UUUAGUUCAGGAUAUGUAGAUUUUAACAUGAGGAUCACCCAUGUAGAUCCUGAAUUAACUACAGAAGGGAACAUUU [Mod of Brourd 1 - Jieux - Exclusion 5] (Eterna round: R97, puzzle: Exclusion 5)
apparent KD of MS2 coat protein (input ligand: FMN 200 uM): 77.2 nM
apparent KD of MS2 coat protein (input ligand: none): 22.5 nM

UUGAAGUCGUCAGGAUAUAGUUUUAAUGUCAUGCGUAUGUUCUUACAUGAGGAUCACCCAUGUCGCUAGAAGGGACUAUAGAUU [JR_ExcNG2_Sub009] (Eterna round: R96, puzzle: Exclusion NG 2)
apparent KD of MS2 coat protein (input ligand: FMN 200 uM): 53.3 nM
apparent KD of MS2 coat protein [4]: 36.4 nM
apparent KD of MS2 coat protein (input ligand: none): 51.6 nM

UCUUAGUCAGGAUAUACAUGAGGAUCACCCAUGUAAAAUUUUAAUUUAAUUUUAAGGUGUAGAAGGGACCACCC [Ex3 #17] (Eterna round: R97, puzzle: Exclusion 3)
apparent KD of MS2 coat protein (input ligand: FMN 200 uM): 33.2 nM
apparent KD of MS2 coat protein (input ligand: none): 37.5 nM

AACCCGUGUGUCAGGAUAUUGAGUCAGACUGGCUACAAGAAGGGACAUGAGGAUCACCCAUGUACUUAGAGAAA [BmEX4 B.22] (Eterna round: R97, puzzle: Brourd's mod of Exclusion 4)
apparent KD of MS2 coat protein (input ligand: FMN 200 uM): 37.8 nM
apparent KD of MS2 coat protein (input ligand: none): 17.9 nM

UAGAAUCGAGGAUAUACAUGAGGAUCACCCAUGUGUGGCCAUACUGUGUGGUCGUCAGGUAGAAGGCGAUUAUA [Exclusion 3 - Mod of Jieux's Gilly Gone Silly 23] (puzzle: Exclusion 3)
apparent KD of MS2 coat protein [2]: 45.4 nM

UCGGCGUCAGGAUAUCCAAUAUAUGACAUGAGGAUCACCCAUGUUUCCACUCGUACCUCCGGAGAAGGGACGAAUU [Ex5 #92] (Eterna round: R97, puzzle: Exclusion 5)
apparent KD of MS2 coat protein (input ligand: FMN 200 uM): 33.5 nM
apparent KD of MS2 coat protein (input ligand: none): 32.1 nM

AAGUACCGUCACGAUAGUGAUGGUACAACAAGUAAGUGAACAUGAGGAUCACCCAUGUCCUCUUUUGCUCGUCUUAU [Sensor 3 - 90] (puzzle: Sensor v3, turn-off variant 2)
apparent KD of MS2 coat protein [1]: 309 nM
apparent KD of MS2 coat protein [2]: 18.4 nM
apparent KD of MS2 coat protein [3]: 334 nM

UGUUGUCGCGCAGGAUAUGAGGAUCACCCAUAUAGAGGAUAUGAAAAGAAGGUUCUGAGGAUCACCCAGAAGGGCGGGACAACU [pwkr exNG2 2xF5 2xFMN.19] (Eterna round: R96, puzzle: Exclusion NG 2)
apparent KD of MS2 coat protein (input ligand: FMN 200 uM): 384 nM
apparent KD of MS2 coat protein [4]: 48.7 nM
apparent KD of MS2 coat protein (input ligand: none): 67.4 nM

AUUGAUGUUGAGGAUAUGCUUAUAUUUAUACUUGCAGAAGGCGAUACAUGAGGAUCACCCAUGUUCAUGGAAGU [JR_E6_Sub092] (puzzle: Exclusion 6)
apparent KD of MS2 coat protein [2]: 26.2 nM
